# In patent US20070031907A1, “Anaplastic lymphoma kinase assay, reagents and compositions thereof” (Istituto Nazionale Per Lo Studio E La Cura Dei Tumori, priority 2003, published 2007):
# Substrate: CC[C@H](C)[C@H](NC(=O)[C@H](CC(=O)O)NC(=O)[C@H](CCCNC(=N)N)NC(=O)[C@H](C)N)C(=O)N[C@@H](Cc1ccc(O)cc1)C(=O)N[C@@H](CCCNC(=N)N)C(=O)N[C@@H](C)C(=O)N[C@@H](CO)C(=O)N[C@@H](Cc1ccccc1)C(=O)N[C@@H](Cc1ccccc1)C(=O)N[C@@H](CCCNC(=N)N)C(=O)N[C@@H](CCCCN)C(=O)NCC(=O)NCC(=O)N[C@@H](CS)C(=O)N[C@@H](C)C(=O)N[C@@H](CCSC)C(=O)N[C@@H](CC(C)C)C(=O)N1CCC[C@H]1C(=O)N[C@H](C(=O)N[C@@H](CCCCN)C(=O)O)C(C)C
# Test: Peptide phosphorylation (radioactive assay) with rALK
# Type: biochemical, human
# Settings: other: kinetic constants for rALK with synthetic peptides as substrate; pH 7.5; 30.0 °C
# Method: The reactions were terminated after 10 min of incubation at 30° C. by spotting 25 μl of the mixture onto P81 phosphocellulose papers, which were processed as described elsewhere (1). Kinetic constants were determined by GraphPad Prism software fitting the data directly to the Michaelis-Menten equation using nonlinear regression.
protein,measurement,value
"rALK (ALK catalytic domain, Leu1073 to Ala1459) (Homo sapiens) (protein, A portion of ALK, stretching from amino acids Leu^1073 to Ala^1459, has been cloned into the baculovirus transfer vector; made in house; host or cells: Sf9 (Spodoptera frugiperda) insect cells, baculovirus (pBlueBacHis2C, MaxBac 2.0)) LQSPEYKLSKLRTSTIMTDYNPNYCFAGKTSSISDLKEVPRKNITLIRGLGHGAFGEVYEGQVSGMPNDPSPLQVAVKTLPEVCSEQDELDFLMEALIISKFNHQNIVRCIGVSLQSLPRFILLELMAGGDLKSFLRETRPRPSQPSSLAMLDLLHVARDIACGCQYLEENHFIHRDIAARNCLLTCPGPGRVAKIGDFGMARDIYRASYYRKGGCAMLPVKWMPPEAFMEGIFTSKTDTWSFGVLLWEIFSLGYMPYPSKSNQEVLEFVTSGGRMDPPKNCPGPVYRIMTQCWQHQPEDRPNFAIILERIEYCTQDPDVINTALPIEYGPLVEEEEKVPVRPKDPEGVPPLLVSQQAKREEERSPAAPPPLPTTSSGKAAKKPTAA",Km,109.4 µM
same,Vmax,0.000186 µmol/min
